The target in experiment [1] is KEAP1 (wild-type full-length), His-tagged (human) (UniProt Q14145). Kind of experiment: AlphaScreen; 153.6 nM FLAG-NRF2, 150 nM His-KEAP1; Rep 2; control for I86V.
Experiment [2] has the same target. The experiment can be described thus: AlphaScreen; 1228.8 nM FLAG-NRF2, 150 nM His-KEAP1; Rep 2; control for I86V. (In general: Alpha assays give light when donor and acceptor beads are brought close together.)
Experiment [3] shares this target. Kind of experiment: AlphaScreen; 1228.8 nM FLAG-NRF2, 150 nM His-KEAP1; Rep 3; control for I86V.
Experiment [4] shares this target. The experiment can be described thus: AlphaScreen; 38.4 nM FLAG-NRF2, 150 nM His-KEAP1; Repeat 2 (same value as in Table 26).
The target is the same in experiment [5]. The experiment can be described thus: AlphaScreen; NRF2 wt isoform 1 9.6 nM, KEAP1 150 nM; set as the 100 % reference for Q75R.
The target is the same in experiment [6]. Kind of experiment: AlphaScreen; 38.4 nM FLAG-NRF2, 150 nM His-KEAP1; signal against NRF2 only; control for I28V.
Experiment [7] has the same target. Kind of experiment: AlphaScreen; FLAG-NRF2 wt isoform 1 9.6 nM, His-KEAP1 150 nM; Rep 3; positive control for I86V.
Experiment [8] has the same target. The experiment can be described thus: AlphaScreen; FLAG-NRF2 wt isoform 1 9.6 nM, His-KEAP1 150 nM; Rep 2; positive control for Q75R.
Experiment [9] shares this target. The experiment can be described thus: AlphaScreen; FLAG-NRF2 wt isoform 1 153.6 nM, His-KEAP1 150 nM; Rep 2; positive control for Q75R.
The target is the same in experiment [10]. The experiment can be described thus: AlphaScreen; FLAG-NRF2 wt isoform 1 307.2 nM, His-KEAP1 150 nM; Rep 1; positive control for Q75R.
Experiment [11] shares this target. The experiment can be described thus: AlphaScreen; FLAG-NRF2 wt isoform 1 1228.8 nM, His-KEAP1 150 nM; Rep 2; positive control for Q75R.
The target is the same in experiment [12]. Kind of experiment: AlphaScreen; NRF2 wt isoform 1 2.4 nM, KEAP1 150 nM; signal against NRF2-only control; control for Q75R.
Experiment [13] has the same target. The experiment can be described thus: AlphaScreen; NRF2 wt isoform 1 19.2 nM, KEAP1 150 nM; signal against NRF2-only control; control for I86V.
Experiment [14] shares this target. Kind of experiment: AlphaScreen; NRF2 wt isoform 1 153.6 nM, KEAP1 150 nM; signal against NRF2-only control; control for Q75R.
For experiment [15] the target is unchanged. Kind of experiment: AlphaScreen; NRF2 wt isoform 1 614.4 nM, KEAP1 150 nM; signal against NRF2-only control; control for Q75R.
The target is the same in experiment [16]. The experiment can be described thus: AlphaScreen; FLAG-NRF2 I86V 38.4 nM, His-KEAP1 150 nM; Rep 1.
Experiment [17] has the same target. Kind of experiment: AlphaScreen; NRF2 I86V 9.6 nM, KEAP1 150 nM; signal against NRF2-only control.
The target is the same in experiment [18]. Kind of experiment: AlphaScreen; NRF2 I86V 19.2 nM, KEAP1 150 nM; signal against NRF2-only control.
Experiment [19] shares this target. The experiment can be described thus: AlphaScreen; mean over 9.6, 19.2 and 38.4 nM NRF2 I86V, KEAP1 150 nM; relative to wild-type NRF2 isoform 1.
For experiment [20] the target is unchanged. The experiment can be described thus: AlphaScreen; 4.8 nM FLAG-NRF2, 150 nM His-KEAP1; Rep 2.
Experiment [21] has the same target. Kind of experiment: AlphaScreen; 19.2 nM FLAG-NRF2, 150 nM His-KEAP1 (same value as in Table 27).
The target is the same in experiment [22]. The experiment can be described thus: AlphaScreen; 9.6 nM FLAG-NRF2, 150 nM His-KEAP1; Repeat 1 (same value as in Table 27).
Experiment [23] has the same target. Kind of experiment: AlphaScreen; 19.2 nM FLAG-NRF2, 150 nM His-KEAP1; Repeat 2 (same value as in Table 27).
Experiment [24] has the same target. The experiment can be described thus: AlphaScreen; FLAG-NRF2 Q75R 1228.8 nM, His-KEAP1 150 nM; Rep 1.
The target is the same in experiment [25]. Kind of experiment: AlphaScreen; NRF2 Q75R 307.2 nM, KEAP1 150 nM; signal against NRF2-only control.
For experiment [26] the target is unchanged. Kind of experiment: AlphaScreen; NRF2 Q75R 1228.8 nM, KEAP1 150 nM; signal against NRF2-only control.

Chain of KEAP1 (wild-type full-length), His-tagged (human) (Q14145 2-624 limits assumed): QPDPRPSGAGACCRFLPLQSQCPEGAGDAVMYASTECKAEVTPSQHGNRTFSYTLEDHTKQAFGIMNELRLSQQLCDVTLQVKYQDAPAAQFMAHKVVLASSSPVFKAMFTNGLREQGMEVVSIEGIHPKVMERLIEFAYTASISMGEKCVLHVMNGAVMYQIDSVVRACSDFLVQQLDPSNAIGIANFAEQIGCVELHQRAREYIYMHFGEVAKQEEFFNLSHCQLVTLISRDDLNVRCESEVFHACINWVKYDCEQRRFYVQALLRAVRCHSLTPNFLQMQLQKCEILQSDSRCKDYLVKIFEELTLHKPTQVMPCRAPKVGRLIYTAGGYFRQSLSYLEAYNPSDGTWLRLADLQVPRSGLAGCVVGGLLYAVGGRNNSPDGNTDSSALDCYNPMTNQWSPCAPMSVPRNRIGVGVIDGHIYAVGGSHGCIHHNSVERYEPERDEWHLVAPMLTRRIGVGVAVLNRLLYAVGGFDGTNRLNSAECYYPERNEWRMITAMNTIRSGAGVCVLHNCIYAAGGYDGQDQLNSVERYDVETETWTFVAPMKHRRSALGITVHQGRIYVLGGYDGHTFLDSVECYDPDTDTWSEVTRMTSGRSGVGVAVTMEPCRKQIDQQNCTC

B1: NRF2 isoform 1 (wild-type full-length), FLAG-tagged (protein)
chain: MMDLELPPPGLPSQQDMDLIDILWRQDIDLGVSREVFDFSQRRKEYELEKQKKLEKERQEQLQKEQEKAFFAQLQLDEETGEFLPIQPAQHIQSETSGSANYSQVAHIPKSDALYFDDCMQLLAQTFPFVDDNEVSSATFQSLVPDIPGHIESPVFIATNQAQSPETSVAQVAPVDLDGMQQDIEQVWEELLSIPELQCLNIENDKLVETTMVPSPEAKLTEVDNYHFYSSIPSMEKEVGNCSPHFLNAFEDSFSSILSTEDPNQLTVNSLNSDATVNTDFGDEFYSAFIAEPSISNSMPSPATLSHSLSELLNGPIDVSDLSLCKAFNQNHPESTAEFNDSDSGISLNTSPSVASPEHSVESSSYGDTLLGLSDSEVEELDSAPGSVKQNGPKTPVHSSGDMVQPLSPSQGQSTHVHDAQCENTPEKELPVSPGHRKTPFTKDKHSSRLEAHLTRDELRAKALHIPFPVEKIINLPVVDFNEMMSKEQFNEAQLALIRDIRRRGKNKVAAQNCRKRKLENIVELEQDLDHLKDEKEKLLKEKGENDKSLHLLKKQLSTLYLEVFSMLRDEDGKPYSPSEYSLQQTRDGNVFLVPKSKKPDVKKN
For B1, the A-counts in experiment [1] was determined as 3090 A-counts; in experiment [2], 2770 A-counts; in experiment [3], 2610 A-counts; in experiment [4], 1900 A-counts. The same molecule yielded a Binding Percentage in experiment [5] of 100%. Moreover, the S/N came out at 3.6 in experiment [6]; 1.4 in [12]; 4.1 in [13]; 2.1 in experiment [14]; 1 in [15]. The A-counts (NRF2 plus KEAP1) in experiment [7] was 2410 A-counts; in experiment [8], 900 A-counts; in [9], 1500 A-counts; in experiment [10] it was 1560 A-counts; in experiment [11], 1360 A-counts.

B2: NRF2 isoform 1 (I86V full-length), FLAG-tagged (protein)
chain: MMDLELPPPGLPSQQDMDLIDILWRQDIDLGVSREVFDFSQRRKEYELEKQKKLEKERQEQLQKEQEKAFFAQLQLDEETGEFLPVQPAQHIQSETSGSANYSQVAHIPKSDALYFDDCMQLLAQTFPFVDDNEVSSATFQSLVPDIPGHIESPVFIATNQAQSPETSVAQVAPVDLDGMQQDIEQVWEELLSIPELQCLNIENDKLVETTMVPSPEAKLTEVDNYHFYSSIPSMEKEVGNCSPHFLNAFEDSFSSILSTEDPNQLTVNSLNSDATVNTDFGDEFYSAFIAEPSISNSMPSPATLSHSLSELLNGPIDVSDLSLCKAFNQNHPESTAEFNDSDSGISLNTSPSVASPEHSVESSSYGDTLLGLSDSEVEELDSAPGSVKQNGPKTPVHSSGDMVQPLSPSQGQSTHVHDAQCENTPEKELPVSPGHRKTPFTKDKHSSRLEAHLTRDELRAKALHIPFPVEKIINLPVVDFNEMMSKEQFNEAQLALIRDIRRRGKNKVAAQNCRKRKLENIVELEQDLDHLKDEKEKLLKEKGENDKSLHLLKKQLSTLYLEVFSMLRDEDGKPYSPSEYSLQQTRDGNVFLVPKSKKPDVKKN
Regarding B2, in experiment [16], the A-counts (NRF2 plus KEAP1) was 3010 A-counts. This molecule returned a S/N in experiment [17] of 3.6. The same molecule gave a S/N in experiment [18] of 4. In [19], this molecule displayed an Average Binding of 96.8% and an Avg. Reduction in Binding of 3.2%.

B3: NRF2 isoform 1 (I28V full-length), FLAG-tagged (protein)
chain: MMDLELPPPGLPSQQDMDLIDILWRQDVDLGVSREVFDFSQRRKEYELEKQKKLEKERQEQLQKEQEKAFFAQLQLDEETGEFLPIQPAQHIQSETSGSANYSQVAHIPKSDALYFDDCMQLLAQTFPFVDDNEVSSATFQSLVPDIPGHIESPVFIATNQAQSPETSVAQVAPVDLDGMQQDIEQVWEELLSIPELQCLNIENDKLVETTMVPSPEAKLTEVDNYHFYSSIPSMEKEVGNCSPHFLNAFEDSFSSILSTEDPNQLTVNSLNSDATVNTDFGDEFYSAFIAEPSISNSMPSPATLSHSLSELLNGPIDVSDLSLCKAFNQNHPESTAEFNDSDSGISLNTSPSVASPEHSVESSSYGDTLLGLSDSEVEELDSAPGSVKQNGPKTPVHSSGDMVQPLSPSQGQSTHVHDAQCENTPEKELPVSPGHRKTPFTKDKHSSRLEAHLTRDELRAKALHIPFPVEKIINLPVVDFNEMMSKEQFNEAQLALIRDIRRRGKNKVAAQNCRKRKLENIVELEQDLDHLKDEKEKLLKEKGENDKSLHLLKKQLSTLYLEVFSMLRDEDGKPYSPSEYSLQQTRDGNVFLVPKSKKPDVKKN
Turning to B3, the A-counts in experiment [20] is 1050 A-counts; in experiment [22] it was 1570 A-counts; in experiment [23], 1700 A-counts. The S/N in [21] amounted to 3.2.

B4: NRF2 isoform 1 (Q75R full-length), FLAG-tagged (protein)
chain: MMDLELPPPGLPSQQDMDLIDILWRQDIDLGVSREVFDFSQRRKEYELEKQKKLEKERQEQLQKEQEKAFFAQLRLDEETGEFLPIQPAQHIQSETSGSANYSQVAHIPKSDALYFDDCMQLLAQTFPFVDDNEVSSATFQSLVPDIPGHIESPVFIATNQAQSPETSVAQVAPVDLDGMQQDIEQVWEELLSIPELQCLNIENDKLVETTMVPSPEAKLTEVDNYHFYSSIPSMEKEVGNCSPHFLNAFEDSFSSILSTEDPNQLTVNSLNSDATVNTDFGDEFYSAFIAEPSISNSMPSPATLSHSLSELLNGPIDVSDLSLCKAFNQNHPESTAEFNDSDSGISLNTSPSVASPEHSVESSSYGDTLLGLSDSEVEELDSAPGSVKQNGPKTPVHSSGDMVQPLSPSQGQSTHVHDAQCENTPEKELPVSPGHRKTPFTKDKHSSRLEAHLTRDELRAKALHIPFPVEKIINLPVVDFNEMMSKEQFNEAQLALIRDIRRRGKNKVAAQNCRKRKLENIVELEQDLDHLKDEKEKLLKEKGENDKSLHLLKKQLSTLYLEVFSMLRDEDGKPYSPSEYSLQQTRDGNVFLVPKSKKPDVKKN
With B4, the A-counts (NRF2 plus KEAP1) in experiment [24] was found to be 705 A-counts. The S/N in experiment [25] was 1; in experiment [26] it was 0.9.

The record behind these values is patent US20250352667A1.
